According to the nanobody polyreactivity screen of Harvey et al. (2022):

Test: yeast display, Sf9 membrane polyspecificity reagent, FACS + sequencing; frameworks hold sequencing errors
Outline: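 Sorting gates, low and high (top ~1%), were placed on anti-HA fluorescence to track expression and on streptavidin fluorescence to track reagent binding. A clone's polyreactivity label is taken from the gate it came out of. The reagent was 10% biotinylated, detergent-solubilized Sf9 membrane, applied for 1 hour at 4 °C to galactose-induced yeast display cells.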

Sequence | polyreactivity (PSR sort gate)
QVQLEESGGGLVQPGGSLRLRCAASGITFYWNAMGWYRQAPVKERELVAGITNSGGGTYYADSVKGRFTISRDNSMYTVYLLMNSLKPEDSAVYYCAAEPTSWYFFYYVGDYLGQGTQVTVSS | high polyreactivity
QVQLVESGGGLGQAGGSLRLSTAASGSNFRYNTMGWYRLGPGKERELVAAINISSSSTYYADSLKGRFTISRDNAKNTVYLQMNSLKPEVTAVYYCANRDYVPIATYENDDYWGQGTQVNVSS | low polyreactivity
QVQLVESGGGLVQAGGSLRLSCAASGFTIADYAMGWYRQAPGKERELVAAITYSGGSTYYADSVKGRFTISRDNAKNTVYLQMNSLKPEDTAVYYWNADYASQSGYDYWGQGTQVTVSS | low polyreactivity
QVQLVESGGGLVQAGGSLRLSCAASGFIFNKYAMGWYRPAPGKERELVARITSSGSRTYYADSVKGRFTISRDKAKNTVYLQMISLKPEDTAVYYCNTYYHWLTMDYWGQGTQVTVSS | high polyreactivity
QVQLVESGGGIVQAGGSLRLSCAASGRSFDPYAMGWYRQAPGKERELVAAISRSGGSTYYADSVKGRFTISRDNAKNTVYLQMNSLKPEDTAFYYCAADDSRYYYEYDYWGQGTQVTVSS | high polyreactivity
QGQLVESGGGLVQAGGSLRLSCAASGRTFYANAMGWYRQAPGKERELVAAISTGGDGTYYADSVKGRFTISRDNAKNTVYLQMNSLKPEDAAVYYCAVRHRASGILYDYWGQGTQVTVSS | low polyreactivity
QVQLVESGGGVVQAGGSLSLSCAASGNTFPVYAMGWYRQASAKERELVATITSGGSTNYADSVKGRFTISRDNAKNTVYLQMNSLKPEDTAVYYCARRAVYSKRRYDYWGQGTQVTVSS | low polyreactivity
QVQLVESGAGLVQAGGRLRLSCAASGRIFIRNAMGWSRQAPGKERELVAAIDSVGSTNYADSVKGRFTISRDNAKNTVYLQLNSLKPEETAVYYCAARGWKYASPYWGYYYWGQGSQVTVSS | low polyreactivity
QVQLVESGGGLVQAGGSLRLSCAASGRTFYWNAMGWYRQAPGKERELVASINGGGSTYYADSVKGRFTISRDNAKNTVYLKMNSLKPEDTAVYYCNTSYIIWYDSWGQGTQVTVSS | low polyreactivity
QVQLVESGGGLVQAGGSLRLSCAASGSIFGPSAMGWYIQAPGKERDLVAGITRSVGSTYYADSVKGRFTISRDNAKNTVYLQMNSLKPEDTADYYCNAKWLYSRWAGYDYWGQGTQVTVSS | low polyreactivity
QVQLVESGGGLVQAGGSLRLSCAASGLIFRGNAMGWYRQAPGKERELVAGITRGGSTYYADSVKGRFTISRDNAKNTVYLQMNSLKPEDTAVYYCAAAFRDGFTRRYGYWGQGTQVTVSS | high polyreactivity
QVQHVESGRGLVQAGGSLRLSCAASGGTFNRYAMGWYRQAPGKERELVAAITSSGGSTYYADSVKGRFTISRDNAMNTVYLHMNSLNPEDTAVYYCNAPGFRRLWGLGYDYWGQGTQVTVSS | high polyreactivity
QVQLVESGGGLVQAGGSLRLSCAASGRTSSINAMGWYRQAPGKERELVAVITGGGRTSYADSVKGRFTISRDNAKNTVDLQMNSLIPEDTAVYYCNATRSYYGYYYWGQGTQVTVSS | high polyreactivity
QVQLVESGGGLVQAGGSLRLSCAASGITFIYYAMGWYRQAPGKEREFVAAITFRDGDTYYADSVKGRFTISRDNAKNTVYLQMNSLKPEDTAVYYCADTYWVYYFYPGYDYWGQGTQVTVSS | low polyreactivity
QVQLVESGGGLVQAGGSLRLSCAASGRIFYYYAMGWYRQAPGKERELVAAISWRGTSTYYADSVKGRFTISRDNAKNTVYLQMNSLKPEDTAVYYCAARYTKGMYYWGQGTQVSVSS | high polyreactivity
QVQLVESGGGLVQAGGSLRLSCAASGRTFVYTMGWYRQAPGKERELVAAIRYSGGRTYYADSVKGRFTISRDNAKNTVYLQMNSLKPEDTAVYYCAARNYATGVRYDYWGQGTQVTVSS | high polyreactivity
QVQLVESGGGLVQAGGSLRLSCAASGRSFQGYAMGWYRKAPGKERELVAAISWSGGSTYYADSVKGRFTISRDNAKNTVYLQMNSLKPEDTAVYYCAASYDIYGNYRRYDYWGQGTQVTVSS | high polyreactivity
QFQLVESGGGLVQAGGSLRLSCAASGSTFLLYAMGWYRQAPGKEREFVASISGDGSSNYADSVKGRFTISRDNAKITVYLQMNSLKPEDTAVYYCAAVLLDPDSTLESGGNFDYWGQGTQVTVSS | low polyreactivity
QVQLVESGGGLVQAGGSLRLSCAASGGILVFYAMGWYRQAPGKERELVAAITKRGTSTYYADSVKGRFTISRDIEKNTVYLQMNSLKPEDTAVYYCAAESIPYYRYDYWGQGSQVTVSS | low polyreactivity
QLQLVESGGGLVQAGGSLRLSCAASGSIFRINAMGWYRQEPGKESELVSAISTRSGRTYYADSVKVRFTISRDNSKNTVYLQMNSLKPEDTAVYYCARYRTQASGYGGYDYWGQGTQVTVSS | high polyreactivity
QVQLVESGGGLVQAGGSLRLSCAASGSIFRYYAMGWYRQAPGKERELVAAISRRGSSTYYADSVKGRFTISRDNAKNTVYLQMNSLNPEDTAVYYCAAGDFKQYDYWGQGTQVTVSS | high polyreactivity
QVQLVESGGGLVQAGGSLRLSCAASVSTFVGNAMGWYRQAPGKERELHAAISSGGSRTNYADSVKGRFTISRDNAKNTVYLQMNSLKPEDTAVYYCIAVFPRWQGSGRFAGGDYWGQGTQVTLSS | high polyreactivity

Sequence | polyreactivity (PSR sort gate)
QVQLVESGGGLVQAGGILRLSCAAYGRTSSYTMGWDIQANGQERELVAAITRRGGSTYYADSVKGRFTISRDHAKNSVYLQMNSLKPEDTAVYYCAASYRGEYDYWGQGTQVTVSS | high polyreactivity
QDQLVESGGGLVQAGGSLRLSCASSGFTIVYYAMGWYRQAPGKERELVADISSYGSTYADSVKGRFTISRDNAKNTVYLLMNSLKPEDTAVYYCAAEYIYQPHYGYYYWGQGTQVTVSS | high polyreactivity
QVQLVESGGGLVQAGGSLRLSCAASGGIFDFYAMGWYRPAPGKERELVAAITRSGSSTFYADSVKGRFTLSRDNAKNTVDLQMNSLKPEDTAIYYCAADYSHLPIAWYYYWGQGTQVTVSS | low polyreactivity
QVQLVESGGGLVQAGCSLRLSCAASGSTFRWYAMGWYRPAPGKEREFVAAITSSGGSTYYADSVKGRFTISRDNAKNTVYLQMNSLKPEDTAVYYCNRRYQPYSYDYWGQGTQVTVSS | high polyreactivity
QVQLVESGGGLVQAGGSLRLSCAASGSIFSGNAMGWYRQAPGKERELVADITFSGSSTYADSVKGRFTISRDNAKNTVYLQMNSLKPEDTAVYYCAKKRPGFLRYGSIGEFQYDYWGQGTQVTVSS | low polyreactivity
QVQLVESGGGLVQAGGSLRLSCAASGIILRYYAMGWYRQAPGKEREMVAAISYSGGRTYYADSVKGRFTISRDNAKNTVYLQMNSLKPEDTAVYYCAADYGYRIIASYDYWGQGTQVTVSS | high polyreactivity
QVQLVESGGGLVQAGGSLRLSCAASGSIFYRYAMAWYRQAPGKERELVAAISSTGSPYYADSVKGRFTISRDNAKNTVYLQRNSLKPEDTAVYYCAARQGYRSYRRYDDWGQGTQVTVSS | high polyreactivity
QVQLVESGGGLVQAGGTLRLSCAASGRTFYGNAMGWYRQAPGKERELVAVITRRGDTTYYADSVKGRFTISRDNAKNTVYLQMNSLKPEDTAVYYCAASYTGGYTPRQKYNRMGYWGQGTQVSVSS | high polyreactivity
QVQLVESGGGLVQAGGSLRLSCAASGGIFARNVMGWYRQAPGKERELVAAISGSGGSTYYADSVKGRFTISRDNAKKTVYLQMNSLKPEDTAVYYCAARTPGVSVYKDGYWGQGTQVTVSS | low polyreactivity
QVQLVESVVVLVQAGGSLRLSCAASGFTIPFYAMGWYRQARGKERDLVAAISQSGVRTYYADSVKGRFTISRDNAKYTVYLQMKSLKPEDTAVYFCNVAYRGALDIHSYWYPSEYWGQGTQVTVSS | high polyreactivity
QVQIVESVGGLFQAGGTLRLICAASGLTFRSYTMGWYRQAPGKERELVAAISSGGSTYYADSVKGRFTISRDNAKNTVYLQMNSLKPEDTAVYYCAARAPWPKWGYYYWGQGTQVTVSS | high polyreactivity
QVHLVESGGGLVQAGGSLRLSCAASGIIFYYYTMGWYRQPPGKERELVASISRDGGSTHYADSVKGRFTISRDNAKNTVYLQMNSLKPEDTAVYYCAARYPTGSSYAFYRRKVYYWGQGTQVTVSS | high polyreactivity
QVHLVESGGGLVQAGGSLRLSCAASGRTFYGYDMGWYRQAPGKERELVATISSGGSTNYADSVKGRFTISRDYAKNTVYLQMNSLKPEDTAVYYCNADSYEYPSPYRYYYLGYDYWGQGTQVTVSS | low polyreactivity
QVQLVESGGGLVQAGGSLRLSCAASGRIFVFYAMGWYRQAPGKERELVASITLTDGSTYYADSEKGRFTISRDNAKNTVYLQMNSLKPEDTAVYYCAARISGGSTFRYQRMYYWGQGTQVTVSS | low polyreactivity
QVQLVDSGGGLVQAGGRLRLSSAPTGSTFYVYLMGGYRQAHGKERELVAVIDWLGGSTYYADSVKGRFTISRDNAKNTVYLQLNSLKPEDTAVYYCYKDAQFYYNLPYYKERDWGQGTQVTVSS | low polyreactivity
QVHLVESGGGLVQAGGSLRLSCAASGSIFRYYAMGCYRQAPGKERELVAGITWSSGSTYYADYVKGRFTISRDKAKNTVYFQMNSLKPEDTAVSYCIADPANPFVTEFEYWGQGNQVTVSS | high polyreactivity
QVQLVESGGGLVQAGGSLRLSCAASGRILSVYAMGWYRQAPGKERELVAAIDYSGGSTNYADSVKGRFTISRDNAKNTVYLQMNSLKPEDTAVYYCNREGGAIAWRYLLEYLYSWGQGTQVTVSS | low polyreactivity
QVQLVESGGGLVQAGGSLRLSCAASGFTFYWNAMGWSRQAPGKERELVAAINGGDSTNYADSVKGRFTISRDNAKNTVYLQMNSLKPEDTAVYYCAAEPSLEAWTAFGSYYWGQGTQVTVSS | low polyreactivity
QVQLVESGGGLVQAGGSLRLSCAASGRTFDYYAMGWFRQAPGKERELVAAISSSGGRTYYADSVKGRFTISRDNAKNTVYLQMNSLKPEDTAVYYCNAVVSRNYEYWGQGTQVTVSS | high polyreactivity
QVQLVESGGGLVQAGGSLRLSCAASGSIFIRNVMGWSRQAPGKERELVAAISSRGGSTYYADSVKGRFTISRDNAKNTVDLQMNSLKPEDTAVYYCNRYSYLFPYYWKYDYWGQGTQVTVSS | high polyreactivity
QVQLVESGGGLVQAGGSLRVSCAASGSTFTWYAMGWYRQAPGKVRELVAAIRWSGGNTYYADSVKGRFTISRDNAKNTVFLQMNSLKPEDTAVYYCNAYQYFPRYDYWGQGTQVTVSS | high polyreactivity
